Results reported in publication doi:10.1101/2021.09.27.462041.

Columns and labels:
Assay in all cases: SPR
[1] = target: H3K27me3 11-mer histone H3 tail peptide
[2] = target: H3K36me3 11-mer histone H3 tail peptide
[3] = target: H3K4me3 11-mer histone H3 tail peptide
[4] = target: H3K9me3 11-mer histone H3 tail peptide

Kd [1]: 26.5 nM
Kd [2]: 32.1 nM
koff [2]: 0.0024 s⁻¹
Kd [3]: 25.5 nM
koff [3]: 0.00238 s⁻¹
Kd [4]: 22.2 nM
B1: DIDO3 PHD domain (domain or fragment)
chain: PNALYCICRQPHNNRFMICCDRCEEWFHGDCVGISEARGRLLERNGEDYICPNCTILQVQ
